Reference: patent US20100068151A1 (published 2010)

B1: VEGF121/rGel fusion toxin (other)
chain: APMAEGGGQNHHEVVKFMDVYQRSYCHPIETLVDIFQEYPDEIEYIFKPSCVPLMRCGGCCNDEGLECVPTEESNITMQIMRIKPHQGQHIGEMSFLQHNKCECRPKKDRARQEKCDKPRRGGGGSGLDTVSFSTKGATYITYVNFLNELRVKLKPEGNSHGIPLLRKKCDDPGKCFVLVALSNDNGQLAEIAIDVTSVYVVGYQVRNRSYFFKDAPDAAYEGLFKNTIKTRLHFGGSYPSLEGEKAYRETTDLGIEPLRIGIKKLDENAIDNYKPTEIASSLLVVIQMVSEAARFTFIENQIRNNFQQRIRPANNTISLENKWGKLSFQIRTSGANGMFSEAVELERANGKKYYVTAVDQVKPKIALLKFVDKDPK
notes: Described as an 84-kDa fusion protein made as in Veenendaal et al., 2002; also called vasculature-targeting fusion protein
B2: DOTA-VEGF121/rGel conjugate (other)
chain: APMAEGGGQNHHEVVKFMDVYQRSYCHPIETLVDIFQEYPDEIEYIFKPSCVPLMRCGGCCNDEGLECVPTEESNITMQIMRIKPHQGQHIGEMSFLQHNKCECRPKKDRARQEKCDKPRRGGGGSGLDTVSFSTKGATYITYVNFLNELRVKLKPEGNSHGIPLLRKKCDDPGKCFVLVALSNDNGQLAEIAIDVTSVYVVGYQVRNRSYFFKDAPDAAYEGLFKNTIKTRLHFGGSYPSLEGEKAYRETTDLGIEPLRIGIKKLDENAIDNYKPTEIASSLLVVIQMVSEAARFTFIENQIRNNFQQRIRPANNTISLENKWGKLSFQIRTSGANGMFSEAVELERANGKKYYVTAVDQVKPKIALLKFVDKDPK
modifications: DOTA chelator conjugated, 3.3±0.1 DOTA molecules per VEGF121/rGel molecule; sites not stated

Biological target: T1, VEGFR-2 expressed on PAE/KDR cells (human, UniProt P35968 20-1356)
T1 construct: whole, on cells
Test: cell-binding assay, displacement of 125I-VEGF165 from PAE/KDR cells

T1 sequence (P35968 20-1356): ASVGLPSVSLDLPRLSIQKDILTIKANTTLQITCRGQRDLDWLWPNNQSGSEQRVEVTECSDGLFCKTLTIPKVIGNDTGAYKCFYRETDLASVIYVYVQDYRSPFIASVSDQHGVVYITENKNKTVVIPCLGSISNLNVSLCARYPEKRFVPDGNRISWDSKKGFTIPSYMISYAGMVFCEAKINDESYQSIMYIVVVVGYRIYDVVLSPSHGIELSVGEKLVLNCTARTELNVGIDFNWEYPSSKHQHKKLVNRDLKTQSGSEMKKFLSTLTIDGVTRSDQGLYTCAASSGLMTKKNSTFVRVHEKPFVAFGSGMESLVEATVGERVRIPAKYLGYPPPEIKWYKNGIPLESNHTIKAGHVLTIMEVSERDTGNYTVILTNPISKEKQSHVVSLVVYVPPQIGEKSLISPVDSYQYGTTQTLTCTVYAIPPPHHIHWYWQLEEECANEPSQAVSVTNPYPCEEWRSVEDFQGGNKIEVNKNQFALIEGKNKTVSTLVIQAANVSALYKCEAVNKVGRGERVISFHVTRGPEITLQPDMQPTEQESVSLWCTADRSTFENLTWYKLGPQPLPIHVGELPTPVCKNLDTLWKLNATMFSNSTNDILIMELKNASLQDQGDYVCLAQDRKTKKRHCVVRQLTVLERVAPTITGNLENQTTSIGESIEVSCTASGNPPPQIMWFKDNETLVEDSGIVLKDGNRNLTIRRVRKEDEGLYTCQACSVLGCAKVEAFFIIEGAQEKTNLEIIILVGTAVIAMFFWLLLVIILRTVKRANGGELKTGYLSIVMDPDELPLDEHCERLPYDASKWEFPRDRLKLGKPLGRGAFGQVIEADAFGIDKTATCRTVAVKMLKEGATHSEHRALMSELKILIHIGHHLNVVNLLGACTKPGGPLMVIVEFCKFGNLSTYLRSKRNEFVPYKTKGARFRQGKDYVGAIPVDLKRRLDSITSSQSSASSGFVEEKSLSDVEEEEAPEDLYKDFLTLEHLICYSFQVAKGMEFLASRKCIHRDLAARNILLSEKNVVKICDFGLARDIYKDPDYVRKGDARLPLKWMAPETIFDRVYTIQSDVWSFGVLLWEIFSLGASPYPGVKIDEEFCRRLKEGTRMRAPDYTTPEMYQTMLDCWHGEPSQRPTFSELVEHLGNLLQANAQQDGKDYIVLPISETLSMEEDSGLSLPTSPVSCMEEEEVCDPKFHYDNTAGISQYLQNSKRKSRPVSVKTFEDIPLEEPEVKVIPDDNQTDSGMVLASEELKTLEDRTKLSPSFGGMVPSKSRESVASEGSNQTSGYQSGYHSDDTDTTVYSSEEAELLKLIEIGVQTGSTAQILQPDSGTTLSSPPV

Row | Binder | IC50 [nM]
1 | B1 | 24.5
2 | B2 | 40.6
